Numbered stars: 1 amine (or outer) side, 2 acyl side, 3 side chain; on linkers, the order of the positions; unused ones are H or OH. Square brackets hold non-standard residues; d marks the D form. Ends that are not written are not given here. Ahppa(3S,4S) = O=C(C[C@H](O)[C@H](Cc1ccccc1)N[*:1])[*:2]; ACHPA = O=C(C[C@H](O)[C@H](CC1CCCCC1)N[*:1])[*:2]; Sta = CC(C)C[C@H](N)[C@@H](O)CC(=O)O; Phg = N[C@H](C(=O)O)c1ccccc1; Nle = CCCC[C@H](N)C(=O)O; norSta = nor-statine
B1: P10-P4′staD→V (peptide)
peptide: KTEEISEVN[Sta]VAEF
B2: heptamer peptide 7J (Ac-Val-Phe-Sta-Val-Ala-Glu-Phe) (peptide)
peptide: Ac-VF[Sta]VAEF
B3: heptamer peptide 7P (Ac-Val-Met-norSta-Val-Ala-Glu-Phe) (peptide)
peptide: Ac-VM[norSta]VAEF
B4: heptamer peptide 7I (Ac-Val-Asn-Sta-Val-Ala-Glu-Phe) (peptide)
peptide: Ac-VN[Sta]VAEF
B5: heptamer peptide 7O (Ac-Val-Met-pheSta-Val-Ala-Glu-Phe) (peptide)
peptide: Ac-VM[Ahppa(3S,4S)]VAEF
B6: heptamer peptide 7H (Ac-Val-nLeu-Sta-Val-Ala-Glu-Phe) (peptide)
peptide: Ac-V[Nle][Sta]VAEF
B7: heptamer peptide 7G (Ac-Val-Phg-Sta-Val-Ala-Glu-Phe) (peptide)
peptide: Ac-V[Phg][Sta]VAEF
B8: heptamer peptide 7Q ((NH2)Val-Met-acha-Val-Ala-Glu-Phe) (peptide)
peptide: H-VM[ACHPA]VAEF
B9: heptamer peptide 7B (Ac-Val-Met-Sta-Val-Ala-Glu-Phe) (peptide)
peptide: Ac-VM[Sta]VAEF

Each binder was assayed against T1, β-secretase (enzyme preparation not stated for the inhibitor assays) (human, UniProt P56817 46-501, limits assumed) (assay: cell-based or functional assay).
T1 sequence (P56817 46-501 limits assumed): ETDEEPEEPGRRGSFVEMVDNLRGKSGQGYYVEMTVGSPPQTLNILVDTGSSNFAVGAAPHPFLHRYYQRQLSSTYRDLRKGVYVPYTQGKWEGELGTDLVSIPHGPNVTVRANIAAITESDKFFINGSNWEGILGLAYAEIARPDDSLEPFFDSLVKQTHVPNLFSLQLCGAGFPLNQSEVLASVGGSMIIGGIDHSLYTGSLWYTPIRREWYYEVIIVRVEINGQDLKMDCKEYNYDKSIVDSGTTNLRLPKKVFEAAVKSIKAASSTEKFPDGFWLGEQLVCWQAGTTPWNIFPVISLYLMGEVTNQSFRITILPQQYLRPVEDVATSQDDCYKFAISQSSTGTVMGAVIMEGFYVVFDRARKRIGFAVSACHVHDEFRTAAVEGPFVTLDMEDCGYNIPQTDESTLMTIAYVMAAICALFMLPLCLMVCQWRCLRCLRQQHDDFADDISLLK
For B1, the “inhibitor potency relative to the valine substitution alone” value was ~100 times.

Molecular target: T1, β-secretase (enzyme preparation not …)
Test: cell-based or functional assay
Remark: another data set of the same source
For B2, the “IC50 Group, MBP C125 assay (Group II: =1<10 µM)” value was < 10 µM.
B3 was tested, and the “IC50 Group, MBP C125 assay (Group II: =1<10 µM)” value was < 10 µM.
In the case of B4, the “IC50 Group, MBP C125 assay (Group II: =1<10 µM)” value is reported as < 10 µM.
B5 was tested, and the “IC50 Group, MBP C125 assay (Group I: IC50 of <µm [sic])” value was < 1 µM.
For B6, the “IC50 Group, MBP C125 assay (Group I: IC50 of <µm [sic])” value was < 1 µM.
With B7 the “IC50 Group, MBP C125 assay (Group I: IC50 of <µm [sic])” value was < 1 µM.
B8 was tested, and the “IC50 Group, MBP C125 assay (Group II: =1<10 µM)” value was < 10 µM.
In the case of B9, the “IC50 Group, MBP C125 assay (Group I: IC50 of <µm [sic])” value is reported as < 1 µM.

Source: US7514408 (ELAN PHARMACEUTICALS, dated 2009)
